pKd: −log10 of the molar value. One block for each sequence: values may come before it.
Legend:
HLA-A*26:01 [1] = assay: IEDB peptide-MHC binding, purified MHC/competitive/fluorescence; filed as Kd, often an IC50 or EC50 that approximates it; ≥ and ≤ were set here for values at or beyond the usual limits of such assays; conditions: source organism: Variola virus
HLA-A*30:01 = assay: as above
HLA-B*07:02 = assay: IEDB peptide-MHC binding, purified MHC/direct/fluorescence; filed as Kd, often an IC50 or EC50 that approximates it; ≥ and ≤ were set here for values at or beyond the usual limits of such assays
HLA-B*48:01 = assay: as above
HLA-A*26:03 = assay: as above
HLA-A*01:01 = assay: as above
HLA-B*15:09 = assay: as above
HLA-A*11:01 = assay: as above
HLA-B*58:01 = assay: as above
HLA-B*15:01 = assay: as above
HLA-B*46:01 = assay: as above
HLA-B*57:01 = assay: as above
HLA-A*31:01 = assay: as above
HLA-A*68:02 = assay: as above
HLA-B*08:01 = assay: as above
HLA-B*15:02 = assay: as above
HLA-B*15:17 = assay: as above
HLA-B*08:03 = assay: as above
HLA-A*69:01 = assay: as above
HLA-A*02:01 = assay: as above
HLA-B*27:05 = assay: as above
HLA-B*15:42 = assay: IEDB peptide-MHC binding, purified MHC/competitive/fluorescence; filed as Kd, often an IC50 or EC50 that approximates it; ≥ and ≤ were set here for values at or beyond the usual limits of such assays
HLA-B*45:06 = assay: as above
HLA-A*32:07 = assay: as above; conditions: source organism: Homo sapiens
HLA-B*83:01 = assay: as above
HLA-B*73:01 = assay: IEDB peptide-MHC binding, purified MHC/direct/fluorescence; filed as Kd, often an IC50 or EC50 that approximates it; ≥ and ≤ were set here for values at or beyond the usual limits of such assays; conditions: source organism: Homo sapiens
HLA-A*03:19 = assay: IEDB peptide-MHC binding, purified MHC/competitive/fluorescence; filed as Kd, often an IC50 or EC50 that approximates it; ≥ and ≤ were set here for values at or beyond the usual limits of such assays; conditions: source organism: Yersinia pestis Nepal516
HLA-A*68:23 = assay: as above; conditions: source organism: Yersinia pestis Nepal516
HLA-C*06:02 = assay: IEDB peptide-MHC binding, purified MHC/direct/fluorescence; filed as Kd, often an IC50 or EC50 that approximates it; ≥ and ≤ were set here for values at or beyond the usual limits of such assays; conditions: source organism: Yersinia pestis Nepal516
HLA-C*08:02 = assay: as above; conditions: source organism: Yersinia pestis Nepal516
HLA-A*03:01 = assay: as above
HLA-A*26:02 = assay: as above
HLA-C*12:03 = assay: as above; conditions: source organism: Escherichia coli O157:H7 str. EDL933
HLA-B*39:01 = assay: as above
HLA-B*18:01 = assay: as above; conditions: source organism: Influenza A virus (A/quail/Hong Kong/FY298/00(H9N2))
HLA-B*40:01 = assay: as above
HLA-B*08:02 = assay: as above; conditions: source organism: Influenza B virus (B/Beijing/184/93)
HLA-A*26:01 [2] = assay: as above; conditions: source organism: Salmonella enterica
HLA-B*44:02 = assay: as above; conditions: source organism: Salmonella enterica
HLA-B*35:01 = assay: as above; conditions: source organism: Salmonella enterica subsp. enterica serovar Typhimurium
[3] = source organism: Yersinia pestis Nepal516
[4] = source organism: Yersinia pestis
[5] = source organism: Escherichia coli O157:H7
[6] = source organism: Escherichia coli O157:H7 str. EC869
[7] = source organism: Influenza A virus (A/quail/Hong Kong/FY298/00(H9N2))
[8] = source organism: Influenza B virus (B/Beijing/184/93)
[9] = source organism: Salmonella enterica
[10] = source organism: Salmonella enterica subsp. enterica serovar Typhimurium

Sequence: ILQDRIRMY
pKd (HLA-A*26:01 [1]): ≤ 4.70 | pKd (HLA-A*30:01; source organism: Variola virus): ≤ 4.70 | pKd (HLA-B*07:02; source organism: Cowpox virus): ≤ 4.70 | pKd (HLA-B*48:01; source organism: Cowpox virus): ≤ 4.70 | pKd (HLA-A*26:03; source organism: Variola virus): ≤ 4.70 | pKd (HLA-A*01:01; source organism: Cowpox virus): ≤ 4.70 | pKd (HLA-B*15:09; source organism: Variola virus): ≤ 4.70 | pKd (HLA-A*11:01; source organism: Cowpox virus): ≤ 4.70 | pKd (HLA-B*58:01; source organism: Cowpox virus): ≤ 4.70 | pKd (HLA-B*15:01; source organism: Cowpox virus): 6.90 | pKd (HLA-B*46:01; source organism: Cowpox virus): ≤ 4.70 | pKd (HLA-B*57:01; source organism: Cowpox virus): ≤ 4.70 | pKd (HLA-A*31:01; source organism: Cowpox virus): ≤ 4.70 | pKd (HLA-A*68:02; source organism: Cowpox virus): ≤ 4.70 | pKd (HLA-B*08:01; source organism: Variola virus): ≤ 4.70 | pKd (HLA-B*15:02; source organism: Variola virus): 7.70 | pKd (HLA-B*15:17; source organism: Cowpox virus): 6.13 | pKd (HLA-B*08:03; source organism: Variola virus): ≤ 4.70 | pKd (HLA-A*69:01; source organism: Cowpox virus): ≤ 4.70 | pKd (HLA-A*02:01; source organism: Cowpox virus): ≤ 4.70 | pKd (HLA-B*27:05; source organism: Cowpox virus): ≤ 4.70

pKd (HLA-B*15:42; source organism: Homo sapiens): ≤ 5.30 | pKd (HLA-B*45:06; source organism: Homo sapiens): ≤ 5.30 | pKd (HLA-A*32:07): 5.47 | pKd (HLA-B*83:01; source organism: Homo sapiens): ≤ 5.30 | pKd (HLA-B*73:01): ≤ 4.70
Sequence: MAWLFFWAI

Sequence: TVYPKTHYV
pKd (HLA-A*03:19): 6.70 | pKd (HLA-B*15:42; [3]): ≤ 5.30 | pKd (HLA-B*45:06; [3]): ≤ 5.30 | pKd (HLA-A*68:23): ≥ 10.00 | pKd (HLA-B*83:01; [3]): ≤ 5.30 | pKd (HLA-C*06:02): 7.46 | pKd (HLA-C*08:02): ≤ 4.70 | pKd (HLA-A*11:01; [4]): 7.32 | pKd (HLA-B*58:01; [4]): 5.44 | pKd (HLA-B*15:01; [4]): 5.70 | pKd (HLA-A*03:01; [4]): 5.38 | pKd (HLA-A*31:01; [4]): 6.75 | pKd (HLA-A*69:01; [4]): 7.94 | pKd (HLA-A*02:01; [4]): 7.38

pKd (HLA-A*30:01; source organism: Escherichia coli O157:H7 str. EDL933): ≤ 4.70 | pKd (HLA-B*07:02; [5]): ≤ 4.70 | pKd (HLA-B*48:01; [5]): ≤ 4.70 | pKd (HLA-A*26:02; [6]): ≤ 4.70 | pKd (HLA-A*01:01; [5]): ≤ 4.70 | pKd (HLA-B*15:09; [6]): ≤ 4.70 | pKd (HLA-C*12:03): 6.69 | pKd (HLA-A*11:01; [5]): ≤ 4.70 | pKd (HLA-B*58:01; [5]): ≤ 4.70 | pKd (HLA-B*15:01; [5]): 8.00 | pKd (HLA-B*46:01; [5]): ≤ 4.70 | pKd (HLA-A*03:01; [5]): ≤ 4.70 | pKd (HLA-B*57:01; [5]): ≤ 4.70 | pKd (HLA-A*31:01; [5]): ≤ 4.70 | pKd (HLA-A*68:02; [5]): ≤ 4.70 | pKd (HLA-B*08:01; [6]): ≤ 4.70 | pKd (HLA-B*15:02; [5]): ≤ 4.70 | pKd (HLA-B*39:01; [6]): ≤ 4.70 | pKd (HLA-B*15:17; [5]): ≤ 4.70 | pKd (HLA-B*08:03; [6]): ≤ 4.70 | pKd (HLA-A*69:01; [5]): ≤ 4.70 | pKd (HLA-A*02:01; [5]): ≤ 4.70 | pKd (HLA-B*27:05; [5]): ≤ 4.70
Sequence: YQAFRTKVH

Sequence: TKDAERGKL
pKd (HLA-B*07:02; [7]): ≤ 4.70 | pKd (HLA-B*48:01; [7]): ≤ 4.70 | pKd (HLA-A*26:03; [8]): ≤ 4.70 | pKd (HLA-A*26:02; [8]): ≤ 4.70 | pKd (HLA-A*01:01; [7]): ≤ 4.70 | pKd (HLA-B*15:09; [8]): ≤ 5.00 | pKd (HLA-B*58:01; [7]): ≤ 4.70 | pKd (HLA-B*15:01; [7]): ≤ 4.70 | pKd (HLA-B*46:01; [7]): ≤ 4.70 | pKd (HLA-A*03:01; [7]): ≤ 4.70 | pKd (HLA-B*57:01; [7]): ≤ 4.70 | pKd (HLA-A*68:02; [7]): ≤ 4.70 | pKd (HLA-B*18:01): ≤ 4.70 | pKd (HLA-B*08:01; [8]): ≤ 4.70 | pKd (HLA-B*39:01; [7]): ≤ 4.70 | pKd (HLA-B*15:17; [7]): ≤ 4.70 | pKd (HLA-B*40:01; [7]): ≤ 4.70 | pKd (HLA-A*69:01; [7]): ≤ 4.70 | pKd (HLA-A*02:01; [7]): ≤ 4.70 | pKd (HLA-B*27:05; [7]): ≤ 4.70 | pKd (HLA-B*08:02): ≤ 4.70

Sequence: MQQSGDEAF
pKd (HLA-B*07:02; [9]): ≤ 4.70 | pKd (HLA-A*26:01 [2]): ≤ 4.70 | pKd (HLA-B*44:02): ≤ 4.70 | pKd (HLA-B*35:01): 6.83 | pKd (HLA-A*01:01; [9]): ≤ 4.70 | pKd (HLA-A*11:01; [9]): ≤ 4.70 | pKd (HLA-B*58:01; [9]): ≤ 4.70 | pKd (HLA-B*15:01; [10]): 6.70 | pKd (HLA-B*46:01; [9]): ≤ 4.70 | pKd (HLA-A*03:01; [9]): ≤ 4.70 | pKd (HLA-A*31:01; [9]): ≤ 4.70 | pKd (HLA-B*08:01; [9]): ≤ 4.70 | pKd (HLA-B*15:02; source organism: Salmonella enterica subsp. enterica serovar Typhimurium str. LT2): 7.49 | pKd (HLA-B*40:01; [10]): 5.99 | pKd (HLA-A*69:01; [9]): ≤ 4.70 | pKd (HLA-A*02:01; [9]): ≤ 4.70 | pKd (HLA-B*27:05; [9]): ≤ 4.70
